Assay results: US6677440

What was measured:
[1] = biological target: blood clotting factor VII (UniProt P08709)
[2] = biological target: prourokinase (UniProt P00749)

proenzyme form of the factor VII-activating protease, sequence (chain, as listed by the source): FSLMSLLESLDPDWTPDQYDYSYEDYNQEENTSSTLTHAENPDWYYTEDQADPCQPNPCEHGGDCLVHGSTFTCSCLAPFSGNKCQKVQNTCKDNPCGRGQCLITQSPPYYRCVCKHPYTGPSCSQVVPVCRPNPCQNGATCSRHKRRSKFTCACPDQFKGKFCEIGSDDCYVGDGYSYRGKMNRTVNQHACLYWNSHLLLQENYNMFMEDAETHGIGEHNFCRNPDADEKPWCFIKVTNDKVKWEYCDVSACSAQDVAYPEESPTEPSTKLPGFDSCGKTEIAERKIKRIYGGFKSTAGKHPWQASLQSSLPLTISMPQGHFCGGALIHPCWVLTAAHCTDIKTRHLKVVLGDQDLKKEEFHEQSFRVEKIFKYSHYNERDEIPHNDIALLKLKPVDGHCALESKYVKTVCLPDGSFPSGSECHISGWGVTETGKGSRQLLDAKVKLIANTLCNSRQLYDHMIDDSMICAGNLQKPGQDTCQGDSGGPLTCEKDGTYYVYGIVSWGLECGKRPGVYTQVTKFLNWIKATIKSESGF
blood clotting factor VII, sequence (P08709 61-466): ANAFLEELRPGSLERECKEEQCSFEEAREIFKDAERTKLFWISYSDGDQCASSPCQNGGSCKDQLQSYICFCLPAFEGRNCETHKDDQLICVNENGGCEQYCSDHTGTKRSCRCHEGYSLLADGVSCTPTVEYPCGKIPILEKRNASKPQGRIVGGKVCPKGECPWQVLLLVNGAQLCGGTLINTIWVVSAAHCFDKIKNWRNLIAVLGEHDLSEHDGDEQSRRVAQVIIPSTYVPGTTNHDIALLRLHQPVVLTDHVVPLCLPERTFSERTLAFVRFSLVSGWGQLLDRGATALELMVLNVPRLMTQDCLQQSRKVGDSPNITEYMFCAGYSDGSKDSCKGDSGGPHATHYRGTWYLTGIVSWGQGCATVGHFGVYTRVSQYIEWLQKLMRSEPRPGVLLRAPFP

proenzyme form of the factor VII-activating protease
activation of factor VII, with subsequent detection of activated factor VII (activity tests of Example 1) [1]: The activity tests (see Example 1) confirmed the nativity of the protein in the sense of the retainment of the biological activities | activation of prourokinase, with subsequent detection of urokinase (activity tests of Example 1) [2]: The activity tests (see Example 1) confirmed the nativity of the protein in the sense of the retainment of the biological activities
